Experimental data as given in patent publication US7038112B2, “Fatty acid elongases” (Miami University, priority 1997, dated 2006).
Where two headings read alike, the source gives them in different places.

Legend:
[1] = In vitro fatty acid elongation assay with yeast microsomes, 18:0 acyl-CoA substrate; type: biochemical, Saccharomyces cerevisiae; details: for (%) 20:0 acyl CoA / (%) 22:0 acyl CoA / (%) 24:0 acyl CoA / (%) 26:0 acyl CoA / (%) Total / Rate, 20:0 acyl CoA / Rate, 22:0 acyl CoA / Rate, 24:0 acyl CoA / Rate, 26:0 acyl CoA / Rate, Total: second experiment
Protocol: (§1) Transformed yeast cells were grown in the presence of either glucose or galactose (2% w/v) as described in Example 1. Cells were harvested by centrifugation at 5000×g for 10 min and washed with 10 ml ice cold isolation buffer (IB), which contains 80 mM Hepes-KOH, pH 7.2, 5 mM EGTA, 5 mM EDTA, 10 mM KC1, 320 mM sucrose and 2 mM DTT). Cells were then resuspended in enough IB to fill a 1.7 ml tube containing 700 μl of 0.5 μm glass beads and yeast microsomes were isolated from the cells essentially as described in Tillman, T. and Bell, R., J. Biol. Chem. 261:9144–9149 (1986). The microsomal membrane pellet was recovered by centrifugation at 252,000×g for 60 min. The pellet was rinsed by resuspending in 40 ml fresh IB and again recovered by centrifugation at 252000×g for 60 min. Microsomal pellets were resuspended in a minimal volume of IB, and the protein concentration adjusted to 2.5 μg μl^−1 by addition of IB containing 15% glycerol. Microsomes were frozen on dry ice and stored at −80° C. The protein concentration in microsomes was determined by the Bradford method (Bradford, 1976).
(§2) Fatty acid elongase activity was measured essentially as described in Hlousek-Radojcic, A. et al., Plant J. 8:803–809 (1995). Briefly, the standard elongation reaction mix contained 80 mM Hepes-KOH, pH 7.2, 20 mM MgCl2, 500 μM NADPH, 1 mM ATP, 100 μM malonyl-CoA, 10 μM CoA-SH and 15 μM radioactive acyl-CoA substrate. The radiolabeled substrate was either [1^−14C]18:1-CoA (50 uCi μmol^−1), [1^−14C]18:0-CoA (55 uCi μmol^−1), or [1^−14C]16:0-CoA (54 uCi μmol^−1). The reaction was initiated by the addition of yeast microsomes (5 μg protein) and the mixture incubated at 30° C. for the indicated period of time. The final reaction volume was 25 μl.
(§3) Methyl esters of the acyl-CoA elongation products were prepared as described in Example 1. Methyl esters were separated on reversed phase silica gel KC18 TLC plates (Whatman, […] thick), quantified by phosphorimaging, and analyzed on by ImageQuant software (Molecular Dynamics, Inc., Sunnyvale, Calif.). The detection limit for each product is about 0.001 nanomoles per min. per mg microsomal protein, depending on the phosphorimage exposure time.
(§4) Yeast cultures containing full-length EL1 in λYES and full-length EL2 in pYEUra3 were grown in the presence of galactose or glucose as described in Example 2. Microsomes were then prepared from each of the cultures and fatty acid elongation assays were carried out as described in Example 2.
(§5) In the first experiment, microsomes were prepared from galactose-induced cultures of EL1, EL2 and FAE1, and incubated with either [1-^14C] 18:0 acyl-CoA or [1-^14C] 18:1 acyl-CoA as substrate. The amounts of various reaction products synthesized after 30 minutes (min) were determined as described in Example 2.
In a second experiment, microsomes were prepared from galactose-induced and from glucose-repressed yeast cultures containing EL1 or EL2 coding sequences. The microsomal preparations were incubated with either 18:0 acyl-CoA or 18:1 acyl-CoA as substrate and the fatty acid reaction products determined as described above. […]

[2] = type: biochemical, Saccharomyces cerevisiae; details: for (%) 20:1 acyl CoA / (%) 22:1 acyl CoA / (%) 24:1 acyl CoA / (%) 26:1 acyl CoA / (%) Total / Rate, 20:1 acyl CoA / Rate, 22:1 acyl CoA / Rate, 24:1 acyl CoA / Rate, 26:1 acyl CoA / Rate, Total: second experiment
Protocol: as §1, §2, §3, §4, §5
In a second experiment, microsomes were prepared from galactose-induced and from glucose-repressed yeast cultures containing EL1 or EL2 coding sequences. The microsomal preparations were incubated with either 18:0 acyl-CoA or 18:1 acyl-CoA as substrate and the fatty acid reaction products determined as described above.

[3] = 18:0-CoA substrate, +Galactose (induced)
[4] = 18:0-CoA substrate, +Glucose (uninduced)
[5] = 18:0-CoA substrate, galactose-induced, 30 min, first experiment
[6] = +Gal, standard reaction mix, average of two experiments
[7] = +Glu, standard reaction mix, one experiment
[8] = galactose-induced, −A&C (ATP and Coenzyme A omitted), average of two experiments
[9] = galactose-induced, −ATP, average of two experiments
[10] = galactose-induced, −CoA, average of two experiments
[11] = 18:1-CoA substrate, +Galactose (induced)
[12] = 18:1-CoA substrate, +Glucose (uninduced)
[13] = 18:1-CoA substrate, galactose-induced, 30 min, first experiment

B1: EL1: Arabidopsis β-keto acyl synthase gene product (SEQ ID NO:2) expressed in yeast microsomes (protein, listed as Arabidopsis thaliana)
chain: MDRERLTAEMAFRDSSSAVIRIRRRLPDLLTSVKLKYVKLGLHNSCNVTTILFFLIILPLTGTVLVQLTGLTFDTFSELWSNQAVQLDTATRLTCLVFLSFVLTLYVANRSKPVYLVDFSCYKPEDERKISVDSFLTMTEENGSFTDDTVQFQQRISNRAGLGDETYLPRGITSTPPKLNMSEARAEAEAVMFGALDSLFEKTGIKPAEVGILIVNCSLFNPTPSLSAMIVNHYKMREDIKSYNLGGMGCSAGLISIDLANNLLKANPNSYAVVVSTENITLNWYFGNDRSMLLCNCIFRMGGAAILLSNRRQDRKKSKYSLVNVVRTHKGSDDKNYNCVYQKEDERGTIGVSLARELMSVAGDALKTNITTLGPMVLPLSEQLMFLISLVKRKMFKLKVKPYIPDFKLAFEHFCIHAGGRAVLDEVQKNLDLKDWHMEPSRMTLHRFGNTSSSSLWYEMAYTEAKGRVKAGDRLWQIAFGSGFKCNSAVWKALRPVSTEEMTGNAWAGSIDQYPVKVVQ
(%) 20:0 acyl CoA [1, 3]: 55.8% | (%) 22:0 acyl CoA [1, 3]: 17.4% | (%) 24:0 acyl CoA [1, 3]: 15.3% | (%) 26:0 acyl CoA [1, 3]: 11.5% | (%) Total [1, 3]: 100.0% | Rate, 20:0 acyl CoA [1, 3]: 0.074 Nanomoles/minute/mg of microsomal protein | Rate, 22:0 acyl CoA [1, 3]: 0.023 Nanomoles/minute/mg of microsomal protein | Rate, 24:0 acyl CoA [1, 3]: 0.020 Nanomoles/minute/mg of microsomal protein | Rate, 26:0 acyl CoA [1, 3]: 0.015 Nanomoles/minute/mg of microsomal protein | Rate, Total [1, 3]: 0.133 Nanomoles/minute/mg of microsomal protein | (%) 20:0 acyl CoA [1, 4]: 100.0% | (%) 22:0 acyl CoA [1, 4]: 0.0% | (%) 24:0 acyl CoA [1, 4]: 0.0% | (%) 26:0 acyl CoA [1, 4]: 0.0% | (%) Total [1, 4]: 100.0% | Rate, 20:0 acyl CoA [1, 4]: 0.007 Nanomoles/minute/mg of microsomal protein | Rate, 22:0 acyl CoA [1, 4]: 0.000 Nanomoles/minute/mg of microsomal protein | Rate, 24:0 acyl CoA [1, 4]: 0.000 Nanomoles/minute/mg of microsomal protein | Rate, 26:0 acyl CoA [1, 4]: 0.000 Nanomoles/minute/mg of microsomal protein | Rate, Total [1, 4]: 0.007 Nanomoles/minute/mg of microsomal protein | effect of omission of ATP and/or CoA on overall amounts of VLCFAs synthesized ([1]; 18:0-CoA substrate, galactose-induced): does not have a significant effect | (%) 20:0 acyl-CoA product [1, 5]: 38.8% | (%) 22:0 acyl-CoA product [1, 5]: 21.9% | (%) 24:0 acyl-CoA product [1, 5]: 19.9% | (%) 26:0 acyl-CoA product [1, 5]: 19.4% | (%) Total acyl-CoA products [1, 5]: 100.0% | Rate, 20:0 acyl-CoA product [1, 5]: 0.084 Nanomoles/minute/mg of microsomal protein | Rate, 22:0 acyl-CoA product [1, 5]: 0.047 Nanomoles/minute/mg of microsomal protein | Rate, 24:0 acyl-CoA product [1, 5]: 0.043 Nanomoles/minute/mg of microsomal protein | Rate, 26:0 acyl-CoA product [1, 5]: 0.042 Nanomoles/minute/mg of microsomal protein | Rate, Total acyl-CoA products [1, 5]: 0.216 Nanomoles/minute/mg of microsomal protein | 20:0 product as a percent of total products formed [1, 6]: 46.2% | 22:0 product as a percent of total products formed [1, 6]: 18.7% | 24:0 product as a percent of total products formed [1, 6]: 18.1% | 26:0 product as a percent of total products formed [1, 6]: 17.1% | Total products as a percent of total products formed [1, 6]: 100.0% | 20:0 product as a percent of total products formed [1, 7]: 53.9% | 22:0 product as a percent of total products formed [1, 7]: 14.4% | 24:0 product as a percent of total products formed [1, 7]: 18.5% | 26:0 product as a percent of total products formed [1, 7]: 13.2% | Total products as a percent of total products formed [1, 7]: 100.0% | increase in overall elongase activity on induction with galactose, 18:0 acyl CoA substrate ([1]; galactose-induced vs glucose): about 19 fold | 20:0 product as a percent of total products formed [1, 8]: 41.7% | 22:0 product as a percent of total products formed [1, 8]: 19.4% | 24:0 product as a percent of total products formed [1, 8]: 16.7% | 26:0 product as a percent of total products formed [1, 8]: 22.3% | Total products as a percent of total products formed [1, 8]: 100.0% | 20:0 product as a percent of total products formed [1, 9]: 34.4% | 22:0 product as a percent of total products formed [1, 9]: 13.7% | 24:0 product as a percent of total products formed [1, 9]: 20.6% | 26:0 product as a percent of total products formed [1, 9]: 31.4% | Total products as a percent of total products formed [1, 9]: 100.0% | 20:0 product as a percent of total products formed [1, 10]: 47.8% | 22:0 product as a percent of total products formed [1, 10]: 18.0% | 24:0 product as a percent of total products formed [1, 10]: 19.1% | 26:0 product as a percent of total products formed [1, 10]: 15.2% | Total products as a percent of total products formed [1, 10]: 100.0% | 18:0-CoA elongation activity, +Glu ([1]; microsomes from glucose-grown cultures, standard reaction mix): .037 nanomoles/minute/mg of microsomal protein | increase in 18:1 CoA elongation, microsomes from induced vs uninduced cells [2]: about 1.3 fold | (%) 20:1 acyl CoA [2, 11]: 100.0% | (%) 22:1 acyl CoA [2, 11]: 0.0% | (%) 24:1 acyl CoA [2, 11]: 0.0% | (%) 26:1 acyl CoA [2, 11]: 0.0% | (%) Total [2, 11]: 100.0% | Rate, 20:1 acyl CoA [2, 11]: 0.081 Nanomoles/minute/mg of microsomal protein | Rate, 22:1 acyl CoA [2, 11]: 0.000 Nanomoles/minute/mg of microsomal protein | Rate, 24:1 acyl CoA [2, 11]: 0.000 Nanomoles/minute/mg of microsomal protein | Rate, 26:1 acyl CoA [2, 11]: 0.000 Nanomoles/minute/mg of microsomal protein | Rate, Total [2, 11]: 0.081 Nanomoles/minute/mg of microsomal protein | (%) 20:1 acyl CoA [2, 12]: 100.0% | (%) 22:1 acyl CoA [2, 12]: 0.0% | (%) 24:1 acyl CoA [2, 12]: 0.0% | (%) 26:1 acyl CoA [2, 12]: 0.0% | (%) Total [2, 12]: 100.0% | Rate, 20:1 acyl CoA [2, 12]: 0.062 Nanomoles/minute/mg of microsomal protein | Rate, 22:1 acyl CoA [2, 12]: 0.000 Nanomoles/minute/mg of microsomal protein | Rate, 24:1 acyl CoA [2, 12]: 0.000 Nanomoles/minute/mg of microsomal protein | Rate, 26:1 acyl CoA [2, 12]: 0.000 Nanomoles/minute/mg of microsomal protein | Rate, Total [2, 12]: 0.062 Nanomoles/minute/mg of microsomal protein | (%) 20:1 acyl-CoA product [2, 13]: 80.8% | (%) 22:1 acyl-CoA product [2, 13]: 19.2% | (%) 24:1 acyl-CoA product [2, 13]: 0.0% | (%) 26:1 acyl-CoA product [2, 13]: 0.0% | (%) Total acyl-CoA products [2, 13]: 100.0% | Rate, 20:1 acyl-CoA product [2, 13]: 0.111 Nanomoles/minute/mg of microsomal protein | Rate, 22:1 acyl-CoA product [2, 13]: 0.026 Nanomoles/minute/mg of microsomal protein | Rate, 24:1 acyl-CoA product [2, 13]: 0.0 Nanomoles/minute/mg of microsomal protein | Rate, 26:1 acyl-CoA product [2, 13]: 0.0 Nanomoles/minute/mg of microsomal protein | Rate, Total acyl-CoA products [2, 13]: 0.137 Nanomoles/minute/mg of microsomal protein
